The text below walks through data of patent US20060046250A1 (SEOUL NATIONAL UNIVERSITY INDUSTRY FOUNDATION, published 2006).

The experiment addresses T1, GST-AIM3 fusion protein (human, UniProt O43324 1-174).
T1 construct: Immobilised on glutathione-sepharose beads; also called GST-fused AIM3; GST-fused AIM3 protein; not shown: glutathione S-transferase (GST) fusion partner from the Pharmacia system; The vector, the linker and the order of the fu
T1 sequence: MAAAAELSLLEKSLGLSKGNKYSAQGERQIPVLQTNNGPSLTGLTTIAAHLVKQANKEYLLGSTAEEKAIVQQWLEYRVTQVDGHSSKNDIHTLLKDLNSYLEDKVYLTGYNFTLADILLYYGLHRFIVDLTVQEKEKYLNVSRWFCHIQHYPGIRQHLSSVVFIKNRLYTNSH
Put plainly: GST pull-down of in vitro translated, radiolabelled fragment, autoradiography. The text has this:
First, AIM3 was expressed as GST fusion protein and purified according to the manufacturer's protocol (Pharmacia). Meanwhile, since it was difficult to synthesize the whole ATM due to its large size, the present inventors tested the interaction between the functional domain of ATM and AIM3. For this purpose, a fragment consisting of 612 amino acids, including the FAT domain of an ATM structure, was amplified by PCR with primers shown in SEQ ID NO: 12 and SEQ ID NO: 13. Also, a fragment (control group) consisting of 145 amino acids, including the C-terminal domain, was amplified by PCR with primers shown in SEQ ID NO: 14 and SEQ ID NO: 15. Then, the amplified PCR products were subdloned into pcDNA3.1 (Invitrogen), a vector suitable for in vitro transcription and […]. At this time, the protein was synthesized by in vitro translation in the presence of radioactive methionine. 10 μl of the synthesized TNT product was incubated with the GST- or GST-AIM3 fusion protein-immobilized glutathion-sepharose beads for 5 minutes. Then, the beads were washed six times with a binding buffer (PBS containing 0.2% sarcosine and 0.2% Triton X100), and dissolved in 10% SDS-PAGE. The binding of the GST-fused AIM3 to each domain was determined by autoradiography.

B1: ATM fragment consisting of 145 amino acids, including the C-terminal domain (other, UniProt Q13315 2912-3056, looked up)
chain: RDIVDGMGITGVEGVFRRCCEKTMEVMRNSQETLLTIVEVLLYDPLFDWTMNPLKALYLQQRPEDETELHPTLNADDQECKRNLSDIDQSFNKVAERVLMRLQEKLKGVEEGTVLSVGGQVNLLIQQAIDPKNLSRLFPGWKAWV
modifications: radioactive methionine (in vitro translated)
notes: domain: C-terminal domain; Made by in vitro transcription and translation from pcDNA3.1; Its limits are set only by the PCR primers; also called C-terminal domain of ATM; control group fragment
Regarding B1, the binding result is “no binding”.
